Source: patent US20010046966

Tests used:
[1] = target: GATA-2 (UniProt O09100); experiment: cell_activity; settings: NIH3T3 luciferase
[2] = target: GATA-3 (UniProt P23772); experiment: cell_activity; settings: NIH3T3 luciferase
Chain of GATA-3 (P23772 whole entry): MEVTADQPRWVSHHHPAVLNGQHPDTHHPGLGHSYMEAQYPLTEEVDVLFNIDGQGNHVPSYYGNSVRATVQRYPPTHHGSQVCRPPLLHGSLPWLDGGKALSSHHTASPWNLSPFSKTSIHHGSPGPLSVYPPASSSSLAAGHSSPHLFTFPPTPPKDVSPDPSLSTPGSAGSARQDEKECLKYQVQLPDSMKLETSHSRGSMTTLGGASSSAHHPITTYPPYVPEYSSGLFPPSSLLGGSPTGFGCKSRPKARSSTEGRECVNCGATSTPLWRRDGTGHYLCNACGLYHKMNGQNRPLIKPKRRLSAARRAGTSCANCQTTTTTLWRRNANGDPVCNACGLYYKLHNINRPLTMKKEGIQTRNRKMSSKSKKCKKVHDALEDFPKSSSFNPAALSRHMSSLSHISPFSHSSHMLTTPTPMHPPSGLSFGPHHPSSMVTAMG

Chain of GATA-2 (O09100 whole entry): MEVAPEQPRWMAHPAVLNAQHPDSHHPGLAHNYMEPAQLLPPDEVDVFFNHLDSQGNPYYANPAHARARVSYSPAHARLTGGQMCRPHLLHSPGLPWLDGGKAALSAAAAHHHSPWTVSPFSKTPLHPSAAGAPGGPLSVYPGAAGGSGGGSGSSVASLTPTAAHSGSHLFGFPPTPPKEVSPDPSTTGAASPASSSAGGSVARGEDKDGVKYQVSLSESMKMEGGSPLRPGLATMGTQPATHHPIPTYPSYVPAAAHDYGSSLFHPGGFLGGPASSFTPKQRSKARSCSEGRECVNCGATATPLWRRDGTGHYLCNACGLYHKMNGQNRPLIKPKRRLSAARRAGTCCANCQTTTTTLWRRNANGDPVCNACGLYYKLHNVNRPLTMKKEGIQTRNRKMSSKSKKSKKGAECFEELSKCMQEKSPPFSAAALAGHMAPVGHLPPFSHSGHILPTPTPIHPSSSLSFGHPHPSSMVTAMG

## PPAR-gamma2 promoter -603 to +62 luciferase reporter
[1]
  activity (fold suppression): 5
[2]
  activity (fold suppression): 5
